Laboratory results from patent US20060160743A1 (SANFORD BURNHAM MEDICAL RESEARCH INSTITUTE, published 2006).
Each block holds one binder with its values, some of them ahead of it. Where no end group is shown, it is not given here.

Experiments:
[1] = target: T1, murine cysteine-rich protein 2 / heart LIM-protein (HLP/CRIP2), full length (murine, UniProt Q9DCT8 1-208); assay: competition: free peptide against CRPPR phage on HLP/CRIP2-transfected 293T cells
T1 construct: also called ESP1
T1 sequence: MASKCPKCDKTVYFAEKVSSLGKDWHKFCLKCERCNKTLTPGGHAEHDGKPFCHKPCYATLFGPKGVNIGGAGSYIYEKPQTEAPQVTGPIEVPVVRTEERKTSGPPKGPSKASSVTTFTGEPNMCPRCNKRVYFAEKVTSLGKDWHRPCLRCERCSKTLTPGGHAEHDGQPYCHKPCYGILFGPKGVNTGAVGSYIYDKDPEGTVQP
Protocol: (§1) Receptor transfections and phage binding assays were performed as follows. 293T cells were transfected with pMH6-derived plasmids (Roche Diagnostics; Indianapolis, Ind.) encoding HLP/CRIP2, Sigirr/TIR8, MpcII-3-related protein and bc10 using the Fugene transfection reagent (Roche Diagnostics). Briefly, 10 μg of plasmid was mixed with 700 μl of serum-free DMEM and 30 μl of Fugene transfection reagent and incubated for 15 minutes at room temperature before the mixture was added to cells. After forty-eight hours, cells were detached from culture dishes using EDTA and washed once with PBS. Phage displaying CRPPR (SEQ ID NO: 1), CKRAVR (SEQ ID NO: 7), […] (SEQ ID NO: 11) or […] (SEQ ID NO: 12) and nonrecombinant control phage (1×10⁹ p.f.u) were incubated with transfected cells for two hours at 4° C. Unbound phage were removed by five washes with 1% BSA in PBS. Bound phage were rescued by addition of bacteria; binding efficiencies were determined by plaque assay as described above.
(§2) Peptides for competition assays were synthesized at The Burnham Institute peptide facility using Fmoc chemistry in a solid-phase synthesizer prior to purification by HPLC and confirmation of their identity by mass spectrometry. […] After five washes with 1% PBS, bound phage were rescued and quantitated by plaque assay.

[2] = target: T2, receptor clone 36 (entire coding sequence of unnamed RIKEN Fantom protein product putatively similar to … (murine, UniProt Q9CZB0 1-169)); assay: bacterial two-hybrid (BacterioMatch), peptide bait against heart cDNA target clone
T2 construct: also called MpcII-3-related protein; not shown: fusion partner encoded by the target vector of the mouse heart cDNA library (BacterioMatch two-hybrid); not described
T2 sequence: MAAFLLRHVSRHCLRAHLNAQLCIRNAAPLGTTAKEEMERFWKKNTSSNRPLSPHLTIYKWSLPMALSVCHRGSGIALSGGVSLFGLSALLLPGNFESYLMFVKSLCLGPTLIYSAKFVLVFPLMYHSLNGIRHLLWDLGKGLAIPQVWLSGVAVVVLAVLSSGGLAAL
Protocol: (§3) PCR products were digested with EcoRI and XhoI, and subcloned into the bait pBT plasmid (Stratagene; La Jolla, Calif.) to generate a recombinant library of baits designated “pBT-hp.” pBT-hp plasmids were transformed into XL1-Blue MRF' Kan competent cells, and 2 μl or 5 μl of cells plated on 100 mm LB-chloramphenicol plates to determine the total number of primary transformants. The remaining transformants were pooled and plated on 150 mm LB-chloramphenicol plates. […] The plates were then scraped, and bacteria harvested. After plating 2 μl and 5 μl of the harvested library in order to determine the size of the amplified library, the pool of pBT-hp plasmids was purified from the pooled bacteria using a commercially available maxiprep DNA column. Purified DNA was used to transform BacterioMatch® Two-Hybrid System reporter strain competent cells according to the manufacturer's instructions (Stratagene; La Jolla, Calif.).
(§4) Bacterial two-hybridization experiments were performed with the BacterioMatch® Two-Hybrid System (Stratagene) according to the manufacturer's instructions. Briefly, pBT-hp and heart cDNA library plasmids were co-transformed using 50 ng each plasmid. Aliquots (100 μl) of co-transformants were plated on selective LB plates (500 μg/ml carbenicillin) and incubated at 37° C. for 20 hours before scoring the plates for growth. […]

[3] = target: T3, murine bladder cancer-associated protein homolog (bc10), full length (murine, UniProt P62951 1-87); assay: competition: free peptide against … phage on bc10-transfected 293T cells
T3 construct: Expressed from full-length cDNA in a pMH6-derived plasmid in 293T cells
T3 sequence: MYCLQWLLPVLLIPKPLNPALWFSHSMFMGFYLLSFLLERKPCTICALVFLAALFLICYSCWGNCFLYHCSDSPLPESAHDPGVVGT
Protocol: as §1, §2

[4] = target: T4, receptor clone 5 (carboxy-terminal 92 amino acids, residues 117 to 208, of heart LIM-protein / cysteine-rich … (murine, UniProt P36201 117-208 (rat entry))); assay: bacterial two-hybrid (BacterioMatch), peptide bait against heart cDNA target clone
T4 construct: Target clone of the bacterial two-hybrid screen; also called HLP clone; HLP/CRIP2 fragment; not shown: fusion partner encoded by the target vector of the mouse heart cDNA library (BacterioMatch two-hybrid); not described
T4 sequence: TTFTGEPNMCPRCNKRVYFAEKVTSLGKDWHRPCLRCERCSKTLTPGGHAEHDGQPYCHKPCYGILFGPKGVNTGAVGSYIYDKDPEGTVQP
Protocol: as §3, §4

[5] = target: T5, murine single Ig IL-1 receptor related protein (Sigirr/TIR8), full length (murine, UniProt Q9JLZ8 1-409); assay: competition: free peptide against CKRAVR phage on Sigirr/TIR8-transfected 293T cells
T5 construct: Expressed from full-length cDNA in a pMH6-derived plasmid in 293T cells
T5 sequence: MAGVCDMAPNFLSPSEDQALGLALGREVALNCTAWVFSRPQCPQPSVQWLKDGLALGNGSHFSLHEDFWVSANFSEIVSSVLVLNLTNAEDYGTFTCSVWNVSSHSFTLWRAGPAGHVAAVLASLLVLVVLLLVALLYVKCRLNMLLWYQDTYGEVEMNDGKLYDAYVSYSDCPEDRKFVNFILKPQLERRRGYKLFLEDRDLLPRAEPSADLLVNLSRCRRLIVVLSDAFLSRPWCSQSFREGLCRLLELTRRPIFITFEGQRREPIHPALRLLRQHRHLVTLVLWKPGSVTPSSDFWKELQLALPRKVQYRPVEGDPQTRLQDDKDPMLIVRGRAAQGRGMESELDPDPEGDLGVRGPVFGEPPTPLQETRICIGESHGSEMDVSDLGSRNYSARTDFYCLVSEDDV
Protocol: as §1, §2

binding result [1]: binds
Binder: CRPPR (also called CRPPR peptide) [free synthetic peptide CRPPR (SEQ ID NO: 1)]

binding result [2]: binds
B1: CRSTRANPC (SEQ ID NO: 11), peptide insert in bait plasmid pBT-hp (peptide)
chain: CRSTRANPC
modifications: cysteine pairing not given here; also: part of pBT bait fusion protein, position of partner not given here
notes: not shown: fusion partner encoded by bait plasmid pBT (BacterioMatch two-hybrid); not described, position relative to the peptide n

binding result [3]: binds
Binder: CPKTRRVPC (also called cognate peptide) [free synthetic peptide CPKTRRVPC (SEQ ID NO: 12)]

binding result [4]: binds
B2: CRPPR (SEQ ID NO: 1), peptide insert in bait plasmid pBT-hp (peptide)
chain: CRPPR
notes: Hybrid bait protein of the bacterial two-hybrid screen; not shown: fusion partner encoded by bait plasmid pBT (BacterioMatch two-hybrid); not described, position relative to the peptide n

binding result [5]: binds
B3: free synthetic peptide CKRAVR (SEQ ID NO: 7) (peptide)
peptide: CKRAVR
notes: also called free peptide CKRAVR; cognate peptide
